B1: Arginyl-tRNA-protein transferase Ate1, isoform Ate1-1 (enzyme, mouse, UniProt Q9Z2A5-1 1-516, looked up)
chain: MASWSAPSPSLVEYFEGQTSFQCGYCKNKLGSRSYGMWAHSMTVQDYQDLIDRGWRRSGKYVYKPVMDQTCCPQYTIRCHPLQFQPSKSHKKVLKKMLKFLAKGEISKGNCEDEPMDSTVEDAVDGDFALINKLDIKCDLKTLSDLKGSIESEEKEKEKSIKKEGSKEFIHPQSIEEKLGSGEPSHPIKVHIGPKPGKGADLSKPPCRKAREMRKERQRLKRMQQASAAASEAQGQPVCLLPKAKSNQPKSLEDLIFQSLPENASHKLEVRVVRSSPPSPQFRATFQESYQVYKRYQMVVHKDPPDKPTVSQFTRFLCSSPLEAEHPADGPECGYGSFHQQYWLDGKIIAVGVLDILPYCVSSVYLYYDPDYSFLSLGVYSALREIAFTRQLHEKTSQLSYYYMGFYIHSCPKMRYKGQYRPSDLLCPETYVWVPIEQCLPSLDNSKYCRFNQDPEAEDEGRSKELDRLRVFHRRSAMPYGVYKNHQEDPSEEAGVLEYANLVGQKCSERMLLFRH
notes: mouse arginyl-tRNA-protein transferase Ate1, isoform Ate1-1; untagged after cleavage; also called R-transferase Ate1; arginyltransferase Ate1; source: E. coli Rosetta(DE3)pLysS, purified (Ni-NTA, Ub moiety cleaved with Usp2-cc, second Ni-NTA)
B2: Arginyl-tRNA-protein transferase Ate1, isoform Ate1-3 (enzyme, mouse, UniProt Q9Z2A5-3 1-509, looked up)
chain: MASVVEYKGLKAGYYCGYCESREGKTSCGMWAHSMTVQDYQDLIDRGWRRSGKYVYKPVMDQTCCPQYTIRCHPLQFQPSKSHKKVLKKMLKFLAKGEISKGNCEDEPMDSTVEDAVDGDFALINKLDIKCDLKTLSDLKGSIESEEKEKEKSIKKEGSKEFIHPQSIEEKLGSGEPSHPIKVHIGPKPGKGADLSKPPCRKAREMRKERQRLKRMQQASAAASEAQGQPVCLLPKAKSNQPKSLEDLIFQSLPENASHKLEVRVVRSSPPSPQFRATFQESYQVYKRYQMVVHKDPPDKPTVSQFTRFLCSSPLEAEHPADGPECGYGSFHQQYWLDGKIIAVGVLDILPYCVSSVYLYYDPDYSFLSLGVYSALREIAFTRQLHEKTSQLSYYYMGFYIHSCPKMRYKGQYRPSDLLCPETYVWVPIEQCLPSLDNSKYCRFNQDPEAEDEGRSKELDRLRVFHRRSAMPYGVYKNHQEDPSEEAGVLEYANLVGQKCSERMLLFRH
notes: untagged after cleavage; also called R-transferase Ate1; arginyltransferase Ate1; source: E. coli Rosetta(DE3)pLysS, purified (Ni-NTA, Ub moiety cleaved with Usp2-cc, second Ni-NTA)

Molecular target: T1, Beta-amyloid peptide Aβ42
T1 construct: beta-amyloid peptide 1-42, a stretch of the amyloid precursor protein; free N-terminus [H2N] and C-terminus [COOH] as printed; Monomerised with HFIP and dissolved in DMSO; for the ITC kinetics treated with 10% NH4OH, lyophilised and resuspended in reaction buffer; source: synthetic peptide, bought: Biopeptide
Test: ELISA; sandwich ELISA: Aβ42 (1 μM) captured on immobilised anti-Aβ1-17 antibody, Ate1 added for 90 min at 37°C (30 mM KCl, 5 mM MgCl2, 15 μM Arg, 1 mM ATP, 50 mM Hepes pH 7.5), read by loss of the anti-Aβ36-42 detection antibody signal (OD450); without tRNA
Details: both partners purified

Row | binding result | Binder
1 | binds | B1
2 | binds | B2

Reference: PMC6738421, “Beta-amyloid induces apoptosis of neuronal cells by inhibition of the Arg/N-end rule pathway proteolytic activity” (Aging (Albany NY), 2019)
